Experimental findings from patent publication US20140087995A1 (published 2014) are described below.

In assay [1] the target is T1, rat calcitonin receptor (rat, UniProt P32214 25-516).
T1 construct: whole, on cells; Membranes of BHK tk'ts 13 cells transiently transfected with the rat calcitonin receptor; also called rCTR; rat calcitonin (a) receptor
T1 sequence (looked up): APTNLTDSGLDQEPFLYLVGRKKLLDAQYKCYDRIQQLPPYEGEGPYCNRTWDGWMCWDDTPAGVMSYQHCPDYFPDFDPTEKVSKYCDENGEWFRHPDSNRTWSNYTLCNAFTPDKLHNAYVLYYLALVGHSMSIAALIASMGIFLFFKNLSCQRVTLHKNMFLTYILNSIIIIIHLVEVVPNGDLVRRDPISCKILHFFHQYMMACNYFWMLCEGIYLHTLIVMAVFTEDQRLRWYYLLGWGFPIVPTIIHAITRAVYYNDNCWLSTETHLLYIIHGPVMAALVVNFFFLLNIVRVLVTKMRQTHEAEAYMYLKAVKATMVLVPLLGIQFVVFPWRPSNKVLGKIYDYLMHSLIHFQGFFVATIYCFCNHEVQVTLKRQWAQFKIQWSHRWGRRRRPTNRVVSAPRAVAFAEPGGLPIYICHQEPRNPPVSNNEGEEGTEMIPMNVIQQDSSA
In words: SPA competition vs 125I-calcitonin, membranes with rat CTR (Assay VIII).

Assay [2] deals with T1, rat calcitonin receptor. In words: IC50 at rCTR divided by IC50 at rAmylin-R (reference).
The target of assay [3] is T2, rat amylin receptor (rat calcitonin receptor + rat RAMP 3) (rat, UniProt P32214 25-516; Q9JJ73 23-147).
T2 construct: whole, on cells; Membranes of BHK tk'ts 13 cells transiently transfected with the rat calcitonin receptor and rat RAMP 3; also called rAmylin-R; rat amylin 3(a) receptor
T2 sequence (looked up) 1: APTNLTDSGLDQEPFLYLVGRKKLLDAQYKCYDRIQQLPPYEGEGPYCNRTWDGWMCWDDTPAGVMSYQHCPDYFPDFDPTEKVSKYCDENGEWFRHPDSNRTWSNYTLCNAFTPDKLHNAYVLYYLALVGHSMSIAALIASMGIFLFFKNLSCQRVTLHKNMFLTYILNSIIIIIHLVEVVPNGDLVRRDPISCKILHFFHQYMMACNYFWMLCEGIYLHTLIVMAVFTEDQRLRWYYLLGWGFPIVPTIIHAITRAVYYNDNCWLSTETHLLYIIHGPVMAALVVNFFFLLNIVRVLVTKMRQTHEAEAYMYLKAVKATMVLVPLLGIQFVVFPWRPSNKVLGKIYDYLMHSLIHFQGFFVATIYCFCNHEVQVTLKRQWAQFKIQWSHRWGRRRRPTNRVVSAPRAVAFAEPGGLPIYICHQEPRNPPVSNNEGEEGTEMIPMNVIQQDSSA
T2 sequence (looked up) 2: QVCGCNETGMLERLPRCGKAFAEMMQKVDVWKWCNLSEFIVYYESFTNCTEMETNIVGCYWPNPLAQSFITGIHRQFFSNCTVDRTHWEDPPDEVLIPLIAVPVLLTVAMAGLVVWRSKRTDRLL
In words: SPA competition vs 125I-rat amylin, membranes with rat CTR + rat RAMP3 (Assay VI). The protocol: The binding assay was performed using scintillation proximity assay (SPA) beads (RPNQ0001) from PerkinElmer and cell membranes from the Amylin 3(a)/CRE-luc cells (as described in Assay (II)) were used. Membranes were prepared in the following way; the cells were rinsed with PBS and incubated with Versene for approximately 5 min before harvesting. The cells were flushed with PBS and the cell-suspension was centrifuged for 5 min at 1000 rpm. Cells were homogenized (ultrathurrax) in a buffer containing 20 mM Na-HEPES and 10 mM EDTA (pH 7.4) and centrifuged at 20.000 rpm for 15 min. The resulting pellet was resuspended, homogenized and centrifuged (20.000 rpm, 15 min) in a buffer containing 20 mM Na-HEPES and 0.1 mM EDTA (pH 7.4, buffer 2). The resulting pellet was resuspended in buffer 2 and protein concentration was measured (BCA protein Assay, Pierce). The homogenate was kept cold during the whole procedure. The membranes were kept at −80° C. until use. The assay was performed in a 384 well Optiplate (PerkinElmer) in a total volume of 40 ul. Membranes were mixed with SPA beads. Final concentration of membranes 35 ng/μL final and SPA beads was 0.05 mg/well. Test-compounds were dissolved in DMSO and further diluted in assay buffer (50 mM Hepes, pH 7.4, 1 mM CaCl2, 5 mM MgCl₂, 0.1% OA and 0.02% Tween20). […] The final mixture was incubated with shaking at 400 rpm for 120 min at 25° C. prior to centrifugation (1500 rpm, 10 min). Samples were analyzed on TopCounter™ (Packard). The IC₅₀ was calculated using (one site binding competition analysis) GraphPad Prism5 as a measure of receptor affinity.
Cells were grown in DMEM with 10% FBS and 1% Pen/Strep. Approximately 48 hours after transfection, the cells were harvested and membranes were prepared.

Assay [4] addresses T3, human calcitonin receptor (human, UniProt P30988 25-474).
T3 construct: whole, on cells; Membranes of a BHK tk'ts 13 cell line stably transfected with the human calcitonin receptor; also called hCTR; hCT
T3 sequence (looked up): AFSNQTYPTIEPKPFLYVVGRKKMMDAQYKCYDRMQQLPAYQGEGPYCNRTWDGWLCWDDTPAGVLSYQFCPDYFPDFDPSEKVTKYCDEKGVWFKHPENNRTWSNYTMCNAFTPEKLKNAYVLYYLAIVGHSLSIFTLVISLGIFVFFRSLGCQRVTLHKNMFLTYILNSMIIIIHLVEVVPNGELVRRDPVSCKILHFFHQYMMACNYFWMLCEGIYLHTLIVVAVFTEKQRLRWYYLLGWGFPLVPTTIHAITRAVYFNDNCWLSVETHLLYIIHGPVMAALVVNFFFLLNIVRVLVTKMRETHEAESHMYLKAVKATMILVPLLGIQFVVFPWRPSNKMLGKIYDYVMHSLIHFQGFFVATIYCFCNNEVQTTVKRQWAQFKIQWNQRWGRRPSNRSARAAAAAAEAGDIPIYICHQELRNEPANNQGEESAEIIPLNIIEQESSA
In words: IC50 at hCTR divided by IC50 at hAmylin-R (reference). The protocol: The resulting pellet was resuspended, homogenized and centrifuged (20.000 rpm, 15 min) in a buffer containing 20 mM Na-HEPES and 0.1 mM EDTA (pH 7.4, buffer 2). The resulting pellet was resuspended in buffer 2 and protein concentration was measured (BCA protein Assay, Pierce). The homogenate was kept cold during the whole procedure. The membranes were kept at −80° C. until use. The assay was performed in a 384 well Optiplate (PerkinElmer) in a total volume of 40 ul. Membranes were mixed with SPA beads. Final concentration of membranes 35 ng/μL final and SPA beads was 0.05 mg/well. Test-compounds were dissolved in DMSO and further diluted in assay buffer (50 mM Hepes, pH 7.4, 1 mM CaCl2, 5 mM MgCl₂, 0.1% OA and 0.02% Tween20). […] The final mixture was incubated with shaking at 400 rpm for 120 min at 25° C. prior to centrifugation (1500 rpm, 10 min). Samples were analyzed on TopCounter™ (Packard). The IC₅₀ was calculated using (one site binding competition analysis) GraphPad Prism5 as a measure of receptor affinity.
Membranes were prepared in the following way; the cells were rinsed with PBS and incubated with Versene for approximately 5 min before harvesting. The cells were flushed with PBS and the cell-suspension was centrifuged for 5 min at 1000 rpm. Cells were homogenized (Ultrathurrax) in a buffer containing 20 mM Na-HEPES and 10 mM EDTA (pH 7.4) and centrifuged at 20.000 rpm for 15 min. The resulting pellet was resuspended, homogenized and centrifuged (20.000 rpm, 15 min) in a buffer containing 20 mM Na-HEPES and 0.1 mM EDTA (pH 7.4, buffer 2). The resulting pellet was resuspended in buffer 2 and protein concentration was measured (BCA protein Assay, Pierce). The homogenate was kept cold during the whole procedure. The membranes were kept at −80° C. until use. Assay was performed in a 384 well Optiplate (PerkinElmer) in a total volume of 40 ul. Membranes were mixed with SPA beads.

As usually defined, the IC50 is the concentration that gives 50% inhibition.

Numbered stars: 1 amine (or outer) side, 2 acyl side, 3 side chain; on linkers, the order of the positions; unused ones are H or OH. Bridge positions count the residues as written; N and C are the ends. * marks the point of attachment. C20 diacid = O=C(O)CCCCCCCCCCCCCCCCCCC(=O)*; γGlu = O=C(O)[C@H](CCC(=O)[*:2])N[*:1]

B1: N^α1-[(4S)-4-carboxy-4-(19-carboxynonadecanoylamino)butanoyl]-[Glu14,Arg17,Pro21,Pro25,Pro28,Pro29]-h-amylin (peptide)
peptide: {C20 diacid-γGlu}-KCNTATCATQRLAEFLRHSSPNFGPILPPTNVGSNTY-NH2
modifications: disulfide 2-7
SMILES: CC[C@H](C)[C@H](NC(=O)[C@@H]1CCCN1C(=O)CNC(=O)[C@H](Cc1ccccc1)NC(=O)[C@H](CC(N)=O)NC(=O)[C@@H]1CCCN1C(=O)[C@H](CO)NC(=O)[C@H](CO)NC(=O)[C@H](Cc1c[nH]cn1)NC(=O)[C@H](CCCNC(=N)N)NC(=O)[C@H](CC(C)C)NC(=O)[C@H](Cc1ccccc1)NC(=O)[C@H](CCC(=O)O)NC(=O)[C@H](C)NC(=O)[C@H](CC(C)C)NC(=O)[C@H](CCCNC(=N)N)NC(=O)[C@H](CCC(N)=O)NC(=O)[C@@H](NC(=O)[C@H](C)NC(=O)[C@@H]1CSSC[C@H](NC(=O)[C@H](CCCCN)NC(=O)CC[C@H](NC(=O)CCCCCCCCCCCCCCCCCCC(=O)O)C(=O)O)C(=O)N[C@@H](CC(N)=O)C(=O)N[C@@H]([C@@H](C)O)C(=O)N[C@@H](C)C(=O)N[C@@H]([C@@H](C)O)C(=O)N1)[C@@H](C)O)C(=O)N[C@@H](CC(C)C)C(=O)N1CCC[C@H]1C(=O)N1CCC[C@H]1C(=O)N[C@H](C(=O)N[C@@H](CC(N)=O)C(=O)N[C@H](C(=O)NCC(=O)N[C@@H](CO)C(=O)N[C@@H](CC(N)=O)C(=O)N[C@H](C(=O)N[C@@H](Cc1ccc(O)cc1)C(N)=O)[C@@H](C)O)C(C)C)[C@@H](C)O
notes: modifications are with respect to human amylin; also called compound 6
With B1, the values for the IC50 in assay [1] and in assay [3] were 51.5 nM and 2.37 nM, respectively. The “Ratio rCT/rAmylin binding” value in assay [2] stood at 21.7. In assay [4], the “Ratio hCT/hAmylin binding” value turned out to be 20.

B2: N^α1-[(4S)-4-carboxy-4-(19-carboxynonadecanoylamino)butanoyl]-[Glu14,Arg17,Pro21,Pro27,Arg35]-h-amylin (peptide)
peptide: {C20 diacid-γGlu}-KCNTATCATQRLAEFLRHSSPNFGAIPSSTNVGSRTY-NH2
modifications: disulfide 2-7
SMILES: CC[C@H](C)[C@H](NC(=O)[C@H](C)NC(=O)CNC(=O)[C@H](Cc1ccccc1)NC(=O)[C@H](CC(N)=O)NC(=O)[C@@H]1CCCN1C(=O)[C@H](CO)NC(=O)[C@H](CO)NC(=O)[C@H](Cc1c[nH]cn1)NC(=O)[C@H](CCCNC(=N)N)NC(=O)[C@H](CC(C)C)NC(=O)[C@H](Cc1ccccc1)NC(=O)[C@H](CCC(=O)O)NC(=O)[C@H](C)NC(=O)[C@H](CC(C)C)NC(=O)[C@H](CCCNC(=N)N)NC(=O)[C@H](CCC(N)=O)NC(=O)[C@@H](NC(=O)[C@H](C)NC(=O)[C@@H]1CSSC[C@H](NC(=O)[C@H](CCCCN)NC(=O)CC[C@H](NC(=O)CCCCCCCCCCCCCCCCCCC(=O)O)C(=O)O)C(=O)N[C@@H](CC(N)=O)C(=O)N[C@@H]([C@@H](C)O)C(=O)N[C@@H](C)C(=O)N[C@@H]([C@@H](C)O)C(=O)N1)[C@@H](C)O)C(=O)N1CCC[C@H]1C(=O)N[C@@H](CO)C(=O)N[C@@H](CO)C(=O)N[C@H](C(=O)N[C@@H](CC(N)=O)C(=O)N[C@H](C(=O)NCC(=O)N[C@@H](CO)C(=O)N[C@@H](CCCNC(=N)N)C(=O)N[C@H](C(=O)N[C@@H](Cc1ccc(O)cc1)C(N)=O)[C@@H](C)O)C(C)C)[C@@H](C)O
notes: modifications are with respect to human amylin; also called compound 16
With B2, the half-maximal inhibitory concentration (IC50) in assay [1] was 55.2 nM; in assay [3], 1.21 nM. In assay [2], the “Ratio rCT/rAmylin binding” value was determined as 45.6. For the same molecule, the “Ratio hCT/hAmylin binding” value in assay [4] stood at 19.1.

B3: N^α1-[(4S)-4-carboxy-4-(19-carboxynonadecanoylamino)butanoyl]-[Glu14,Arg17,Pro21,Pro26]-h-amylin (peptide)
peptide: {C20 diacid-γGlu}-KCNTATCATQRLAEFLRHSSPNFGAPLSSTNVGSNTY-NH2
modifications: disulfide 2-7
SMILES: CC(C)C[C@H](NC(=O)[C@H](CCCNC(=N)N)NC(=O)[C@H](CCC(N)=O)NC(=O)[C@@H](NC(=O)[C@H](C)NC(=O)[C@@H]1CSSC[C@H](NC(=O)[C@H](CCCCN)NC(=O)CC[C@H](NC(=O)CCCCCCCCCCCCCCCCCCC(=O)O)C(=O)O)C(=O)N[C@@H](CC(N)=O)C(=O)N[C@@H]([C@@H](C)O)C(=O)N[C@@H](C)C(=O)N[C@@H]([C@@H](C)O)C(=O)N1)[C@@H](C)O)C(=O)N[C@@H](C)C(=O)N[C@@H](CCC(=O)O)C(=O)N[C@@H](Cc1ccccc1)C(=O)N[C@@H](CC(C)C)C(=O)N[C@@H](CCCNC(=N)N)C(=O)N[C@@H](Cc1c[nH]cn1)C(=O)N[C@@H](CO)C(=O)N[C@@H](CO)C(=O)N1CCC[C@H]1C(=O)N[C@@H](CC(N)=O)C(=O)N[C@@H](Cc1ccccc1)C(=O)NCC(=O)N[C@@H](C)C(=O)N1CCC[C@H]1C(=O)N[C@@H](CC(C)C)C(=O)N[C@@H](CO)C(=O)N[C@@H](CO)C(=O)N[C@H](C(=O)N[C@@H](CC(N)=O)C(=O)N[C@H](C(=O)NCC(=O)N[C@@H](CO)C(=O)N[C@@H](CC(N)=O)C(=O)N[C@H](C(=O)N[C@@H](Cc1ccc(O)cc1)C(N)=O)[C@@H](C)O)C(C)C)[C@@H](C)O
notes: modifications are with respect to human amylin; also called compound 7
On to B3, for which the IC50 in assay [1] was 47.2 nM; in assay [3], 1.12 nM. The “Ratio rCT/rAmylin binding” value in assay [2] amounted to 42. Also, the “Ratio hCT/hAmylin binding” value in assay [4] was 16.5.
